Experimental data taken from patent US20170232104A1.

Legend:
[1] = molecular target: 28mer peptide of the CXCR5 antigen; assay: antigen ELISA; 100 mg/mL formulation, -20C, initial
[2] = molecular target: 28mer peptide of the CXCR5 antigen; assay: antigen ELISA; 100 mg/mL formulation, +5C, 3 months
[3] = molecular target: 28mer peptide of the CXCR5 antigen; assay: antigen ELISA; histidine pH 5.0 prototype A, 20 mg/mL, T0
[4] = molecular target: 28mer peptide of the CXCR5 antigen; assay: antigen ELISA; 100 mg/mL formulation, +25C, 1 month
[5] = molecular target: 28mer peptide of the CXCR5 antigen; assay: antigen ELISA; 100 mg/mL formulation, -20C, 18 months
[6] = molecular target: 28mer peptide of the CXCR5 antigen; assay: antigen ELISA; PBS 155 mM, light stress, 24 h +40C
[7] = molecular target: 28mer peptide of the CXCR5 antigen; assay: antigen ELISA; histidine pH 5.0 prototype B (table title LA_09_029B), 20 mg/mL, T0
[8] = molecular target: 28mer peptide of the CXCR5 antigen; assay: antigen ELISA; acetate pH 5.5 prototype D, 20 mg/mL, T0
[9] = molecular target: 28mer peptide of the CXCR5 antigen; assay: antigen ELISA; PBS 155 mM, polypropylene, 24 h +40C
[10] = molecular target: 28mer peptide of the CXCR5 antigen; assay: antigen ELISA; 100 mg/mL formulation, +5C, 9 months
[11] = molecular target: 28mer peptide of the CXCR5 antigen; assay: antigen ELISA; PBS 155 mM, clear glass type I, 24 h +40C
[12] = molecular target: 28mer peptide of the CXCR5 antigen; assay: antigen ELISA; 100 mg/mL formulation, +5C, 1 month
[13] = molecular target: 28mer peptide of the CXCR5 antigen; assay: antigen ELISA; 100 mg/mL formulation, -20C, 12 months
[14] = molecular target: 28mer peptide of the CXCR5 antigen; assay: antigen ELISA; citrate pH 6.0 prototype C, 20 mg/mL, T0
[15] = molecular target: 28mer peptide of the CXCR5 antigen; assay: antigen ELISA; 100 mg/mL formulation, -20C, 3 months
[16] = molecular target: 28mer peptide of the CXCR5 antigen; assay: antigen ELISA; 100 mg/mL formulation, +25C, 3 months
[17] = molecular target: 28mer peptide of the CXCR5 antigen; assay: antigen ELISA; PBS 155 mM, 1 h purged with air, 24 h +40C
[18] = molecular target: 28mer peptide of the CXCR5 antigen; assay: antigen ELISA; 100 mg/mL formulation, +5C, 6 months
[19] = molecular target: 28mer peptide of the CXCR5 antigen; assay: antigen ELISA; 100 mg/mL formulation, -20C, 1 month
[20] = molecular target: 28mer peptide of the CXCR5 antigen; assay: antigen ELISA; histidine pH 5.0 prototype D, 20 mg/mL, T0
[21] = molecular target: 28mer peptide of the CXCR5 antigen; assay: antigen ELISA; 100 mg/mL formulation, +25C, initial
[22] = molecular target: 28mer peptide of the CXCR5 antigen; assay: antigen ELISA; 100 mg/mL formulation, +25C, 6 months
[23] = molecular target: 28mer peptide of the CXCR5 antigen; assay: antigen ELISA; 100 mg/mL formulation, +5C, 12 months
[24] = molecular target: 28mer peptide of the CXCR5 antigen; assay: antigen ELISA; 100 mg/mL formulation, +5C, 18 months
[25] = molecular target: 28mer peptide of the CXCR5 antigen; assay: antigen ELISA; 100 mg/mL formulation, -20C, 6 months
[26] = molecular target: 28mer peptide of the CXCR5 antigen; assay: antigen ELISA; 100 mg/mL formulation, -20C, 9 months
[27] = molecular target: 28mer peptide of the CXCR5 antigen; assay: antigen ELISA; PBS 155 mM, clear glass type I as T0, 24 h +40C
[28] = molecular target: 28mer peptide of the CXCR5 antigen; assay: antigen ELISA; acetate pH 5.5 prototype C, 20 mg/mL, T0
[29] = molecular target: 28mer peptide of the CXCR5 antigen; assay: antigen ELISA; 100 mg/mL formulation, +5C, 15 months
[30] = molecular target: 28mer peptide of the CXCR5 antigen; assay: antigen ELISA; 100 mg/mL formulation, +5C, initial
[31] = molecular target: 28mer peptide of the CXCR5 antigen; assay: antigen ELISA; citrate pH 6.0 prototype B, 20 mg/mL, T0

Potency (Antigen ELISA) EC50 value (in comparison to reference) [1]: 75%
Potency (Antigen ELISA) EC50 value (in comparison to reference) [2]: 95%
EC50% [3]: 174%
Potency (Antigen ELISA) EC50 value (in comparison to reference) [4]: 121%
Potency (Antigen ELISA) EC50 value (in comparison to reference) [5]: 127%
EC50% [6]: 72.3%
EC50% [7]: 118%
EC50% [8]: 91%
EC50% [9]: 107%
Potency (Antigen ELISA) EC50 value (in comparison to reference) [10]: 92%
EC50% [11]: 131%
Potency (Antigen ELISA) EC50 value (in comparison to reference) [12]: 105%
Potency (Antigen ELISA) EC50 value (in comparison to reference) [13]: 96%
EC50% [14]: 104%
Potency (Antigen ELISA) EC50 value (in comparison to reference) [15]: 84%
Potency (Antigen ELISA) EC50 value (in comparison to reference) [16]: 96%
EC50% [17]: 84.3%
Potency (Antigen ELISA) EC50 value (in comparison to reference) [18]: 97%
Potency (Antigen ELISA) EC50 value (in comparison to reference) [19]: 107%
EC50% [20]: 169%
Potency (Antigen ELISA) EC50 value (in comparison to reference) [21]: 75%
Potency (Antigen ELISA) EC50 value (in comparison to reference) [22]: 104%
Potency (Antigen ELISA) EC50 value (in comparison to reference) [23]: 93%
Potency (Antigen ELISA) EC50 value (in comparison to reference) [24]: 119%
Potency (Antigen ELISA) EC50 value (in comparison to reference) [25]: 96%
Potency (Antigen ELISA) EC50 value (in comparison to reference) [26]: 101%
EC50% [27]: 62.3%
EC50% [28]: 142%
Potency (Antigen ELISA) EC50 value (in comparison to reference) [29]: 114%
Potency (Antigen ELISA) EC50 value (in comparison to reference) [30]: 75%
EC50% [31]: 104%
B1: Lead CXCR5 Antibody (humanized IgG4 anti-CXCR5 antibody) (antibody, V domains shown)
VH: QVQLKESGPGLVAPSESLSITCTVSGFSLIDYGVNWIRQPPGKGLEWLGVIWGDGTTYYNPSLKSRLSISKDNSKSQVFLKVTSLTTDDTAMYYCARIVYWGQGTLVTVSA
VL: DIVMTQAAPSVAVTPGASVSISCRSSKSLLHSSGKTYLYWFLQRPGQSPQLLIYRLSSLASGVPDRFSGSGSGTAFTLRISRVEAEDVGVYYCMQHLEYPYTFGGGTKLEIKR
